Paper PMC7015237, “mTORC1 signalling is not essential for the maintenance of muscle mass and function in adult sedentary mice” (Journal of Cachexia, Sarcopenia and Muscle, 2019)

Molecular target: T1, eukaryotic translation initiation factor 4E (mouse (endogenous in gastrocnemius …, UniProt P63073 1-217))
T1 construct: eukaryotic translation initiation factor 4E (eIF4E), mouse, endogenous in gastrocnemius muscle; also called eIF4E; source: endogenous, mouse gastrocnemius muscle lysate (3 month iRAmKO and control mice)
Test: pull-down; m7GTP-agarose beads on 400 ug gastrocnemius lysate of 3 month iRAmKO (raptor-depleted) and control mice, overnight at 4°C; lysis buffer 20 mM Hepes pH 7.4, 50 mM KCl, 0.2 mM EDTA, 0.5% Triton X-100; western blot for eIF4E and 4E-BP1; 4E-BP1 normalised to eIF4E
Settings: partners not purified

T1 sequence (P63073 whole entry): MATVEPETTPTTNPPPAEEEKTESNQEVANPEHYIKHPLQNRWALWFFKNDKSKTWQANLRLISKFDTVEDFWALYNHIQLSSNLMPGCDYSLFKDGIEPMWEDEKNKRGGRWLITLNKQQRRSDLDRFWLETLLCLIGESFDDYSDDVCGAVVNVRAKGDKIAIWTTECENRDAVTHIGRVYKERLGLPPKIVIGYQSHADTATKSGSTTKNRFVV

B1: eukaryotic translation initiation factor 4E-binding protein 1 (natural protein, UniProt Q60876 1-117, looked up)
chain: MSAGSSCSQTPSRAIPTRRVALGDGVQLPPGDYSTTPGGTLFSTTPGGTRIIYDRKFLMECRNSPVAKTPPKDLPAIPGVTSPTSDEPPMQASQSQLPSSPEDKRAGGEESQFEMDI
notes: Phosphorylation of 4E-BP1 (S65) is lower in iRAmKO muscle than in controls; the phosphorylation state of the pulled-down protein was not determined; also called 4E-BP1; source: endogenous, mouse gastrocnemius muscle lysate (3 month iRAmKO and control mice)
  fold change of the ratio of 4E-BP1 to eIF4E in the m7GTP pulldown, iRAmKO against control mice: 2.5 fold
